Measurements taken from paper PMC11018817, “Reciprocal antagonism of PIN1-APC/C^CDH1 governs mitotic protein stability and cell cycle entry” (Nature Communications, 2024).
Square brackets hold non-standard residues; d marks the D form. Ends that are not written are not given here. Pro(13C,15N) = 13C, 15N isotope-labelled Pro; pS = N[C@@H](COP(=O)(O)O)C(=O)O

Biological target: T1, 13C, 15N-enriched PIN1 (NMR sample) (human, UniProt Q13526 1-163, 13C, 15N-enriched)
T1 construct: PIN1, human; resonances of both the WW and the PPIase domain were followed; also called 15N-labeled PIN1
Experiment: NMR titration; series of 2D HSQC spectra of 0.1 mM 13C, 15N-enriched PIN1 titrated with the CDH1 phosphopeptide; 25 °C, pH 6.6, 20 mM potassium phosphate, 100 mM NaSO4, 10% D2O; chemical shift perturbation
Settings: both partners purified

T1 sequence (Q13526 whole entry, the tested form may be a part): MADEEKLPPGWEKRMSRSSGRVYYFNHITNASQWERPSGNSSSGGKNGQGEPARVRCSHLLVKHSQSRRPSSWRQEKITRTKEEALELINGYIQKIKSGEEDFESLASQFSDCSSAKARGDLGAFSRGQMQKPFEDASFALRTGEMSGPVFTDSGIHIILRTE

B1: CDH1-pS163 peptide (peptide)
peptide: LR[pS][Pro(13C,15N)]RKPTRKISKIPFKVLDAPE
notes: CDH1 (FZR1), human, residues 161-183; also called CDH1 phosphopeptide; phosphorylated peptide; source: synthetic peptide, bought: Pepmic
B1: binds.
